Test results taken from patent US10196657B2, “Methods of producing 7-carbon chemicals via methyl-ester shielded carbon chain elongation” (INVISTA North America S.á r.l., priority 2012, dated 2019).
One block for each molecule: values may come before it.

Columns and labels:
Type in all cases: biochemical
[1] = ω-transaminase activity assay, 7-aminoheptanol to 7-oxoheptanol
Protocol: A nucleotide sequence encoding an N-terminal His-tag was added to the Chromobacterium violaceum, Pseudomonas syringae and Rhodobacter sphaeroides genes encoding the ω-transaminases of SEQ ID NOs: 8, 10 and 11, respectively (see FIGS. 7F and 7G) such that N-terminal HIS tagged ω-transaminases could be produced. The modified genes were cloned into a pET21a expression vector under the T7 promoter. Each expression vector was transformed into a BL21[DE3] E. coli host. Each resulting recombinant E. coli strain were cultivated at 37° C. in a 250 mL shake flask culture containing 50 mL LB media and antibiotic selection pressure, with shaking at 230 rpm. Each culture was induced overnight at 16° C. using 1 mM IPTG.
(§1) The pellet from each induced shake flask culture was harvested via centrifugation. Each pellet was resuspended and lysed via sonication. The cell debris was separated from the supernatant via centrifugation and the cell free extract was used immediately in enzyme activity assays.
(§2) Enzyme activity assays in the reverse direction (i.e., 7-aminoheptanol to 7-oxoheptanol) were performed in a buffer composed of a final concentration of 50 mM HEPES buffer (pH=7.5), 10 mM 7-aminoheptanol, 10 mM pyruvate, and 100 μM pyridoxyl 5′ phosphate. Each enzyme activity assay reaction was initiated by adding cell free extract of the ω-transaminase gene product or the empty vector control to the assay buffer containing the 7-aminoheptanol and then incubated at 25° C. for 4 h, with shaking at 250 rpm. The formation of L-alanine was quantified via RP-HPLC.

[2] = ω-transaminase activity assay, forward direction (pimelate semialdehyde to 7-aminoheptanoate); settings: for acceptance of pimelate semialdehyde as substrate (formation of pyruvate from L-alanine, RP-HPLC): cell free extract, 10 mM pimelate semialdehyde, 10 mM L-alanine, 25° C., 4 h, against empty vector control, FIG. 16; for acceptance of pimelate semialdehyde as substrate, synthesizing 7-aminoheptanoate (conclusion from confirmed reversibility): concluded from reversibility of the ω-transaminase activity
Protocol: (§3) A sequence encoding an N-terminal His-tag was added to the genes from Chromobacterium violaceum, Pseudomonas syringae, Rhodobacter sphaeroides, and Vibrio Fluvialis encoding the ω-transaminases of SEQ ID NOs: 8, 10, 11 and 13, respectively (see FIGS. 7F and 7G) such that N-terminal HIS tagged ω-transaminases could be produced. Each of the resulting modified genes was cloned into a pET21a expression vector under control of the T7 promoter and each expression vector was transformed into a BL21[DE3] E. coli host. The resulting recombinant E. coli strains were cultivated at 37° C. in a 250 mL shake flask culture containing 50 mL LB media and antibiotic selection pressure, with shaking at 230 rpm. Each culture was induced overnight at 16° C. using 1 mM IPTG.
as §1
Enzyme activity in the forward direction (i.e., pimelate semialdehyde to 7-aminoheptanoate) was confirmed for the transaminases of SEQ ID NO 10, SEQ ID NO 11 and SEQ ID NO 13. Enzyme activity assays were performed in a buffer composed of a final concentration of 50 mM HEPES buffer (pH=7.5), 10 mM pimelate semialdehyde, 10 mM L-alanine and 100 μM pyridoxyl 5′ phosphate. Each enzyme activity assay reaction was initiated by adding a cell free extract of the ω-transaminase gene product or the empty vector control to the assay buffer containing the pimelate semialdehyde and incubated at 25° C. for 4 h, with shaking at 250 rpm. The formation of pyruvate was quantified via RP-HPLC.

[3] = ω-transaminase activity assay, reverse direction (7-aminoheptanoate to pimelate semialdehyde); settings: cell free extract, 10 mM 7-aminoheptanoate, 10 mM pyruvate, 25° C., 4 h; against empty vector control; FIG. 15
Protocol: as §3, §1
as §2, with “7-aminoheptanoate” for “7-aminoheptanol”, “pimelate semialdehyde)” for “7-oxoheptanol)”, “7-aminoheptanoate,” for “7-aminoheptanol,”, “pyruvate” for “pyruvate,”, “and” for “and then”, “L-alanine from pyruvate” for “L-alanine”

[4] = Carboxylate reductase activity assay, N7-acetyl-7-aminoheptanoate to N7-acetyl-7-aminoheptanal; settings: purified enzyme enhanced by sfp gene product, 2 mM substrate, room temperature, 20 min; against empty vector control; FIG. 12
Protocol: The activity of each of the N-terminal His-tagged carboxylate reductases of SEQ ID NOs: 3, 6, and 7 (see Examples 4, and FIGS. 7B, 7E, and 7F) for converting N7-acetyl-7-aminoheptanoate to N7-acetyl-7-aminoheptanal was assayed in triplicate in a buffer composed of a final concentration of 50 mM HEPES buffer (pH=7.5), 2 mM N7-acetyl-7-aminoheptanoate, 10 mM MgCl2, 1 mM ATP, and 1 mM NADPH. The assays were initiated by adding purified carboxylate reductase and phosphopantetheine transferase or the empty vector control to the assay buffer containing the N7-acetyl-7-aminoheptanoate then incubated at room temperature for 20 min. The consumption of NADPH was monitored by absorbance at 340 nm.

acceptance of 7-aminoheptanol as substrate (formation of L-alanine, RP-HPLC) ([1]; cell free extract, 10 mM 7-aminoheptanol, 10 mM pyruvate, 25° C., 4 h, against empty vector control, FIG. 19): accepted 7-aminoheptanol as substrate
acceptance of 7-oxoheptanol as substrate, forming 7-aminoheptanol (concluded from reversibility) ([1]; concluded from reversibility of the ω-transaminase activity (Example 2)): accept 7-oxoheptanol as substrate
acceptance of 7-aminoheptanoate as substrate (formation of L-alanine from pyruvate, RP-HPLC) [3]: accepted 7-aminoheptanote as substrate
B1: SEQ ID NO 10: Pseudomonas syringae ω-transaminase, Genbank Accession No. AAY39893.1 (protein, listed as Pseudomonas syringae)
chain: MSANNPQTLEWQALSSEHHLAPFSDYKQLKEKGPRIITRAEGVYLWDSEGNKILDGMSGLWCVAIGYGREELADAASKQMRELPYYNLFFQTAHPPVLELAKAISDIAPEGMNHVFFTGSGSEGNDTMLRMVRHYWALKGQPNKKTIISRVNGYHGSTVAGASLGGMTYMHEQGDLPIPGVVHIPQPYWFGEGGDMTPDEFGIWAAEQLEKKILELGVENVGAFIAEPIQGAGGVIVPPDSYWPKIKEILSRYDILFAADEVICGFGRTSEWFGSDFYGLRPDMMTIAKGLTSGYVPMGGLIVRDEIVAVLNEGGDFNHGFTYSGHPVAAAVALENIRILREEKIVERVRSETAPYLQKRLRELSDHPLVGEVRGVGLLGAIELVKDKTTRERYTDKGAGMICRTFCFDNGLIMRAVGDTMIIAPPLVISFAQIDELVEKARTCLDLTLAVLQG
acceptance of pimelate semialdehyde as substrate (formation of pyruvate from L-alanine, RP-HPLC) [2]: accepted pimelate semialdehyde as substrate
acceptance of pimelate semialdehyde as substrate, synthesizing 7-aminoheptanoate (conclusion from confirmed reversibility) [2]: accepted pimelate semialdehyde as substrate

B2: SEQ ID NO 6: Mycobacterium massiliense carboxylate reductase, Genbank Accession No. EIV11143.1 (protein)
chain: MTNETNPQQEQLSRRIESLRESDPQFRAAQPDPAVAEQVLRPGLHLSEAIAALMTGYAERPALGERARELVIDQDGRTTLRLLPRFDTTTYGELWSRTTSVAAAWHHDATHPVKAGDLVATLGFTSIDYTVLDLAIMILGGVAVPLQTSAPASQWTTILAEAEPNTLAVSIELIGAAMESVRATPSIKQVVVFDYTPEVDDQREAFEAASTQLAGTGIALETLDAVIARGAALPAAPLYAPSAGDDPLALLIYTSGSTGAPKGAMHSENIVRRWWIREDVMAGTENLPMIGLNFMPMSHIMGRGTLTSTLSTGGTGYFAASSDMSTLFEDMELIRPTALALVPRVCDMVFQRFQTEVDRRLASGDTASAEAVAAEVKADIRDNLFGGRVSAVMVGSAPLSEELGEFIESCFELNLTDGYGSTEAGMVFRDGIVQRPPVIDYKLVDVPELGYFSTDKPHPRGELLLKTDGMFLGYYKRPEVTASVFDADGFYMTGDIVAELAHDNIEIIDRRNNVLKLSQGEFVAVATLEAEYANSPVVHQIYVYGSSERSYLLAVVVPTPEAVAAAKGDAAALKTTIADSLQDIAKEIQLQSYEVPRDFIIEPQPFTQGNGLLTGIAKLARPNLKAHYGPRLEQMYAEIAEQQAAELRALHGVDPDKPALETVLKAAQALLGVSSAELAADAHFTDLGGDSLSALSFSDLLRDIFAVEVPVGVIVSAANDLGGVAKFVDEQRHSGGTRPTAETVHGAGHTEIRAADLTLDKFIDEATLHAAPSLPKAAGIPHTVLLTGSNGYLGHYLALEWLERLDKTDGKLIVIVRGKNAEAAYGRLEEAFDTGDTELLAHFRSLADKHLEVLAGDIGDPNLGLDADTWQRLADTVDVIVHPAALVNHVLPYNQLFGPNVVGTAEIIKLAITTKIKPVTYLSTVAVAAYVDPTTFDEESDIRLISAVRPIDDGYANGYGNAKWAGEVLLREAHDLCGLPVAVFRSDMILAHSRYTGQLNVPDQFTRLILSLIATGIAPGSFYQAQTTGERPLAHYDGLPGDFTAEAITTLGTQVPEGSEGFVTYDCVNPHADGISLDNFVDWLIEAGYPIARIDNYTEWFTRFDTAIRGLSEKQKQHSLLPLLHAFEQPSAAENHGVVPAKRFQHAVQAAGIGPVGQDGTTDIPHLSRRLIVKYAKDLEQLGLL
modifications: Mycobacterium massiliense
acceptance of N7-acetyl-7-aminoheptanoate as substrate (NADPH consumption, absorbance at 340 nm) [4]: accepted N7-acetyl-7-aminoheptanoate as substrate

B3: SEQ ID NO 3: Mycobacterium smegmatis carboxylate reductase, Genbank Accession No. ABK71854.1 (protein, listed as Mycobacterium smegmatis)
chain: MTSDVHDATDGVTETALDDEQSTRRIAELYATDPEFAAAAPLPAVVDAAHKPGLRLAEILQTLFTGYGDRPALGYRARELATDEGGRTVTRLLPRFDTLTYAQVWSRVQAVAAALRHNFAQPIYPGDAVATIGFASPDYLTLDLVCAYLGLVSVPLQHNAPVSRLAPILAEVEPRILTVSAEYLDLAVESVRDVNSVSQLVVFDHHPEVDDHRDALARAREQLAGKGIAVTTLDAIADEGAGLPAEPIYTADHDQRLAMILYTSGSTGAPKGAMYTEAMVARLWTMSFITGDPTPVINVNFMPLNHLGGRIPISTAVQNGGTSYFVPESDMSTLFEDLALVRPTELGLVPRVADMLYQHHLATVDRLVTQGADELTAEKQAGAELREQVLGGRVITGFVSTAPLAAEMRAFLDITLGAHIVDGYGLTETGAVTRDGVIVRPPVIDYKLIDVPELGYFSTDKPYPRGELLVRSQTLTPGYYKRPEVTASVFDRDGYYHTGDVMAETAPDHLVYVDRRNNVLKLAQGEFVAVANLEAVFSGAALVRQIFVYGNSERSFLLAVVVPTPEALEQYDPAALKAALADSLQRTARDAELQSYEVPADFIVETEPFSAANGLLSGVGKLLRPNLKDRYGQRLEQMYADIAATQANQLRELRRAAATQPVIDTLTQAAATILGTGSEVASDAHFTDLGGDSLSALTLSNLLSDFFGFEVPVGTIVNPATNLAQLAQHIEAQRTAGDRRPSFTTVHGADATEIRASELTLDKFIDAETLRAAPGLPKVTTEPRTVLLSGANGWLGRFLTLQWLERLAPVGGTLITIVRGRDDAAARARLTQAYDTDPELSRRFAELADRHLRVVAGDIGDPNLGLTPEIWHRLAAEVDLVVHPAALVNHVLPYRQLFGPNVVGTAEVIKLALTERIKPVTYLSTVSVAMGIPDFEEDGDIRTVSPVRPLDGGYANGYGNSKWAGEVLLREAHDLCGLPVATFRSDMILAHPRYRGQVNVPDMFTRLLLSLLITGVAPRSFYIGDGERPRAHYPGLTVDFVAEAVTTLGAQQREGYVSYDVMNPHDDGISLDVFVDWLIRAGHPIDRVDDYDDWVRRFETALTALPEKRRAQTVLPLLHAFRAPQAPLRGAPEPTEVFHAAVRTAKVGPGDIPHLDEALIDKYIRDLREFGLI
acceptance of N7-acetyl-7-aminoheptanoate as substrate (NADPH consumption, absorbance at 340 nm) [4]: accepted N7-acetyl-7-aminoheptanoate as substrate

acceptance of 7-aminoheptanoate as substrate (formation of L-alanine from pyruvate, RP-HPLC) [3]: accepted 7-aminoheptanote as substrate
B4: SEQ ID NO 13: Vibrio fluvialis ω-transaminase, Genbank Accession No. AEA39183.1 (protein, listed as Vibrio fluvialis)
chain: MNKPQSWEARAETYSLYGFTDMPSLHQRGTVVVTHGEGPYIVDVNGRRYLDANSGLWNMVAGFDHKGLIDAAKAQYERFPGYHAFFGRMSDQTVMLSEKLVEVSPFDSGRVFYTNSGSEANDTMVKMLWFLHAAEGKPQKRKILTRWNAYHGVTAVSASMTGKPYNSVFGLPLPGFVHLTCPHYWRYGEEGETEEQFVARLARELEETIQREGADTIAGFFAEPVMGAGGVIPPAKGYFQAILPILRKYDIPVISDEVICGFGRTGNTWGCVTYDFTPDAIISSKNLTAGFFPMGAVILGPELSKRLETAIEAIEEFPHGFTASGHPVGCAIALKAIDVVMNEGLAENVRRLAPRFEERLKHIAERPNIGEYRGIGFMWALEAVKDKASKTPFDGNLSVSERIANTCTDLGLICRPLGQSVVLCPPFILTEAQMDEMFDKLEKALDKVFAEVA
acceptance of pimelate semialdehyde as substrate (formation of pyruvate from L-alanine, RP-HPLC) [2]: accepted pimelate semialdehyde as substrate
acceptance of pimelate semialdehyde as substrate, synthesizing 7-aminoheptanoate (conclusion from confirmed reversibility) [2]: accepted pimelate semialdehyde as substrate
